From patent WO2013190679A1 (dated 2013)

Experiments:
[1] = molecular target: T1, recombinant human LOX-1 protein (61-273aa) (human, UniProt P78380 61-273); test: ELISA, LOX-1 (61-273aa) immobilised, HRP anti-mouse IgG
[2] = molecular target: T2, BSA (negative control, Sigma) (UniProt P02769 25-607); test: ELISA, BSA immobilised, HRP anti-mouse IgG
[3] = molecular target: T1, recombinant human LOX-1 protein …; test: ELISA on immobilised LOX-1; protein concentration at the inflection point of a 4-parameter logistic fit
[4] = molecular target: T2, BSA (negative control, Sigma); test: ELISA, BSA immobilised, HRP anti-V5 tag

T2 sequence (P02769 25-607 limits assumed): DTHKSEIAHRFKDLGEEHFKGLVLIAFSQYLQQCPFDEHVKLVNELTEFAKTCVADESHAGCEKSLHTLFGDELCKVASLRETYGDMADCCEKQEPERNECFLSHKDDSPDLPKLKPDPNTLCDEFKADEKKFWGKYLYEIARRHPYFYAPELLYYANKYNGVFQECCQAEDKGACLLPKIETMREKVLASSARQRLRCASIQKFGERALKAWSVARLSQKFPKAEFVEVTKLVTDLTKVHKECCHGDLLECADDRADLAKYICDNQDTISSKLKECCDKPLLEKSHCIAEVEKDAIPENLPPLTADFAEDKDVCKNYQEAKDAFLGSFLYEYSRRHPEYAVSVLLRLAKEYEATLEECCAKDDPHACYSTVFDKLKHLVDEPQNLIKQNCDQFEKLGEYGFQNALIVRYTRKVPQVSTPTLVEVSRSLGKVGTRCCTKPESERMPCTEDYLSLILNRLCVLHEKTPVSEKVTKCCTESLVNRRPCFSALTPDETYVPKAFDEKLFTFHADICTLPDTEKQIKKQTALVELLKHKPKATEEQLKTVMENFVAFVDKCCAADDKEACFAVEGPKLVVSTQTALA

binding result [1]	binding result [2]	EC50 [3] [µg/mL]	binding result [4]	Binder
binds	no binding	–	–	mouse anti-LOX-1 monoclonal antibody #10-1 (antibody, V domains shown, Whole mouse IgG1, kappa from the hybridoma; also called anti-LOX-1 antibody #10-1; IgG type of mouse anti-LOX-1 antibody #10-1) VH: EVKLLESGGGLVQPGGSLKLSCAVSGFDFSRYWMSWVRQAPGKGLEWIGEINPDSSTINFTPSLKDKFIVSRDNAKNTLYLQMSKVRSEDTALYYCARNDVLLGAMDYWGQGTSVTVSS VL: DVLMTQTPLSLPVSLGDQASISCRSSQTIVHSNGKTYLEWYLQKPGQSPKLLIYKVSNRFSGVPDRFSGSGSGTDFTLKISRVEAEDLGVYYCFQGSHVPLTFGAGTKLELK
–	–	2.91	no binding	Fv-type anti-LOX-1 antibody (scFv, The VH gene was amplified with the #10-1 heavy chain secretion signal; Expressed in FreeStyle 293 and purified by the His tag; also called Fv type antibody; Fv-type antibody; not shown: C-terminal V5 and 6xHis tag from the pEF6/V5/His vector) scFv: EVKLLESGGGLVQPGGSLKLSCAVSGFDFSRYWMSWVRQAPGKGLEWIGEINPDSSTINFTPSLKDKFIVSRDNAKNTLYLQMSKVRSEDTALYYCARNDVLLGAMDYWGQGTSVTVSSGGGGSGGGGSGGGGSDVLMTQTPLSLPVSLGDQASISCRSSQTIVHSNGKTYLEWYLQKPGQSPKLLIYKVSNRFSGVPDRFSGSGSGTDFTLKISRVEAEDLGVYYCFQGSHVPLTFGAGTKLELK
